Positions count from the first letter of the chain named.
T1: DLG3_1, Q92796
T1 sequence (Q92796 125-227, limits assumed, looked up): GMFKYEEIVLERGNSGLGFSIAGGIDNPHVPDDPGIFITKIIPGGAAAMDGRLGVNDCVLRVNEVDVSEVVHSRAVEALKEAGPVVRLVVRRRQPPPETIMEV

T2: DLG3_3, Q92796
T2 sequence (Q92796 374-475, limits assumed, looked up): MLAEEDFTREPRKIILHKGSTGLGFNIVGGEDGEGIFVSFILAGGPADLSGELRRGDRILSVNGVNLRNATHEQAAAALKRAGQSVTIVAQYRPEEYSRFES

T3: DVL3, Q92997
T3 sequence (Q92997 244-331, limits assumed, looked up): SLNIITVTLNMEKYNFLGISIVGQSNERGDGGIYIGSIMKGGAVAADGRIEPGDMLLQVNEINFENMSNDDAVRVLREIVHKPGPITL

T4: LIN7A, O14910
T4 sequence (O14910 103-200, limits assumed, looked up): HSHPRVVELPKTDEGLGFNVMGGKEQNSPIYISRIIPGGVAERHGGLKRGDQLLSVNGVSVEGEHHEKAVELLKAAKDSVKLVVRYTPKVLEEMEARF

T5: LIN7B, Q9HAP6
T5 sequence (Q9HAP6 88-185, limits assumed, looked up): T4 sequence (O14910 103-200, limits assumed, looked up) with S2A, V20I, I35V, E42D, H65Q, K77Q, D78G, K89R

T6: MPDZ_12, O75970
T6 sequence (O75970 1857-1958, limits assumed, looked up): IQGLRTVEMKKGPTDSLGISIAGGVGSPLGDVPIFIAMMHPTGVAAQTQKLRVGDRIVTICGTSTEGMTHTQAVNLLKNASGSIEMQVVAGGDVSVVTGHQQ

T7: PCLO, Q9Y6V0
T7 sequence (Q9Y6V0 4491-4600, limits assumed, looked up): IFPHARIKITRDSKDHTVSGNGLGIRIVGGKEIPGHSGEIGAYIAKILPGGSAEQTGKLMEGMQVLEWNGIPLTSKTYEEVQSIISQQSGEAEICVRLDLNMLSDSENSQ

T8: PTPN13_1, Q12923
T8 sequence (Q12923 1088-1188, limits assumed, looked up): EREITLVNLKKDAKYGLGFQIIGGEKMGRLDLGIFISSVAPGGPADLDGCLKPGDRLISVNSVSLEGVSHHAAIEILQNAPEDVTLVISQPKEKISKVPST

T9: SHANK1, Q9Y566
T9 sequence (Q9Y566 658-767, limits assumed, looked up): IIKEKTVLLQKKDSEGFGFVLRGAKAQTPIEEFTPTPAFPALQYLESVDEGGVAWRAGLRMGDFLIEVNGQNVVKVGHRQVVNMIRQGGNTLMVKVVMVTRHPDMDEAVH

T10: TX1BP3, O14907
T10 sequence (O14907 10-122, limits assumed, looked up): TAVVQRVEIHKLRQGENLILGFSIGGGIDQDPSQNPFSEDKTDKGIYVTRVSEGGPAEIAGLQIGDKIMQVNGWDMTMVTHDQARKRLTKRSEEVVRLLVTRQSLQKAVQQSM

B1: FZD1, Q9UP38 (peptide)
chain: TNSKQGETTV
B2: TYRO3, Q06418 (peptide)
chain: QQGLLPHSSC

What follows are binders tested against ARHGEF12, Q9NZN5-2 (assay: holdup assay). Conditions: plain residues with an end cap or a label only (N-terminal biotin on a linker: ado-ado).
Design: key: below the threshold = too weak to quantify, mostly under pKd 3.1 to 4

Chain of ARHGEF12, Q9NZN5-2 (Q9NZN5 other isoform, or with tags, fused parts or gaps): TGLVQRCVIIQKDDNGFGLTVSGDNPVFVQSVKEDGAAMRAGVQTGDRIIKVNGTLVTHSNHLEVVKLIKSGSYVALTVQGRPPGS

Q: For B1, which pKd is on record?
A: below the threshold

Q: B2 was tested. Which pKd did it give?
A: 4.18

Each binder was assayed against DLG1_2, Q12959 (assay: holdup assay). Conditions: plain residues with an end cap or a label only (N-terminal biotin on a linker: ado-ado).
Design: key: below the threshold = too weak to quantify, mostly under pKd 3.1 to 4

Chain of DLG1_2, Q12959 (Q12959 314-412): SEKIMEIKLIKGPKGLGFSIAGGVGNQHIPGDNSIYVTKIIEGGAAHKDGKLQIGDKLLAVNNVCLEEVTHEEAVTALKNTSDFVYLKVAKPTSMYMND

Q: B1 was tested. Which pKd did it give?
A: 5.09

Q: With B2 as the binder, how does the pKd read?
A: below the threshold

The binders below were run against T1, DLG3_1, Q92796 (assay: holdup assay). Conditions: plain residues with an end cap or a label only (N-terminal biotin on a linker: ado-ado).
Design: key: below the threshold = too weak to quantify, mostly under pKd 3.1 to 4

Q: B1 was tested. Which pKd did it give?
A: 4.37

Q: For B2, which pKd is on record?
A: below the threshold

What follows are binders tested against T2, DLG3_3, Q92796 (assay: holdup assay). Conditions: plain residues with an end cap or a label only (N-terminal biotin on a linker: ado-ado).
Design: key: below the threshold = too weak to quantify, mostly under pKd 3.1 to 4

Q: With B1 as the binder, how does the pKd read?
A: 4.13

Q: B2 was tested. Which pKd did it give?
A: below the threshold

These binders were tested against DLG5_1, Q8TDM6 (assay: holdup assay). Conditions: plain residues with an end cap or a label only (N-terminal biotin on a linker: ado-ado).
Design: key: below the threshold = too weak to quantify, mostly under pKd 3.1 to 4

Chain of DLG5_1, Q8TDM6 (Q8TDM6 617-713): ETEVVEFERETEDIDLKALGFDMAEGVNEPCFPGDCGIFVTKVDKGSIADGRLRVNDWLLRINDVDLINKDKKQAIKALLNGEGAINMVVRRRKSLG

Q: B1 was tested. Which pKd did it give?
A: 3.91

Q: For B2, which pKd is on record?
A: below the threshold

The binders below were run against T3, DVL3, Q92997 (assay: holdup assay). Conditions: plain residues with an end cap or a label only (N-terminal biotin on a linker: ado-ado).
Design: key: below the threshold = too weak to quantify, mostly under pKd 3.1 to 4

Q: How did the pKd turn out when B1 was run?
A: 3.61

Q: For B2, which pKd is on record?
A: below the threshold

These binders were tested against FRMPD2_1, Q68DX3 (assay: holdup assay). Conditions: plain residues with an end cap or a label only (N-terminal biotin on a linker: ado-ado).
Design: key: below the threshold = too weak to quantify, mostly under pKd 3.1 to 4

Chain of FRMPD2_1, Q68DX3 (Q68DX3 770-861): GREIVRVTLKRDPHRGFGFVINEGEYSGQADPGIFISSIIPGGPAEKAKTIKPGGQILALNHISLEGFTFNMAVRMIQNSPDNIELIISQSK

Q: With B1 as the binder, how does the pKd read?
A: 3.79

Q: B2 was tested. Which pKd did it give?
A: below the threshold

The binders below were run against GOPC, Q9HD26 (assay: holdup assay). Conditions: plain residues with an end cap or a label only (N-terminal biotin on a linker: ado-ado).
Design: key: below the threshold = too weak to quantify, mostly under pKd 3.1 to 4

Q: With B1 as the binder, how does the pKd read?
A: 3.67

Q: How did the pKd turn out when B2 was run?
A: below the threshold

These binders were tested against GORASP2, Q9H8Y8 (assay: holdup assay). Conditions: plain residues with an end cap or a label only (N-terminal biotin on a linker: ado-ado).
Design: key: below the threshold = too weak to quantify, mostly under pKd 3.1 to 4

Q: With B1 as the binder, how does the pKd read?
A: 3.99

Q: For B2, which pKd is on record?
A: below the threshold

The binders below were run against GRASP, Q7Z6J2 (assay: holdup assay). Conditions: plain residues with an end cap or a label only (N-terminal biotin on a linker: ado-ado).
Design: key: below the threshold = too weak to quantify, mostly under pKd 3.1 to 4

Chain of GRASP, Q7Z6J2 (Q7Z6J2 96-193): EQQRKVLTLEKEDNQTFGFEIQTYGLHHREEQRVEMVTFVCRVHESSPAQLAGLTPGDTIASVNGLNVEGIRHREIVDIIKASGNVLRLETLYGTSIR

Q: How did the pKd turn out when B1 was run?
A: below the threshold

Q: For B2, which pKd is on record?
A: 3.97

The binders below were run against GRID2IP_1, A4D2P6 (assay: holdup assay). Conditions: plain residues with an end cap or a label only (N-terminal biotin on a linker: ado-ado).
Design: key: below the threshold = too weak to quantify, mostly under pKd 3.1 to 4

Chain of GRID2IP_1, A4D2P6 (A4D2P6 1-87): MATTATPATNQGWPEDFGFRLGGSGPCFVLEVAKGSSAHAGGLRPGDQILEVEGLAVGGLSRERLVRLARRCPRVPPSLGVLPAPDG

Q: Which pKd does the source give for B1 here?
A: 3.66

Q: B2 was tested. Which pKd did it give?
A: below the threshold

The binders below were run against Inadl_1, Q8NI35 (assay: holdup assay). Conditions: plain residues with an end cap or a label only (N-terminal biotin on a linker: ado-ado).
Design: key: below the threshold = too weak to quantify, mostly under pKd 3.1 to 4

Chain of Inadl_1, Q8NI35 (Q8NI35 113-229): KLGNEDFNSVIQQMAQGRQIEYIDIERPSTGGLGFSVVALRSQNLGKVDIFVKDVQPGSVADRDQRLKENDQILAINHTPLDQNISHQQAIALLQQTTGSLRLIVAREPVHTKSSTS

Q: How did the pKd turn out when B1 was run?
A: below the threshold

Q: Which pKd does the source give for B2 here?
A: below the threshold

What follows are binders tested against Inadl_10, Q8NI35 (assay: holdup assay). Conditions: plain residues with an end cap or a label only (N-terminal biotin on a linker: ado-ado).
Design: key: below the threshold = too weak to quantify, mostly under pKd 3.1 to 4

Chain of Inadl_10, Q8NI35 (Q8NI35 1673-1763): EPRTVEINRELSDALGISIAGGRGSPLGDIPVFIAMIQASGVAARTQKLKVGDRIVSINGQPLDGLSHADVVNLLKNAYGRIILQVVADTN

Q: B1 was tested. Which pKd did it give?
A: below the threshold

Q: Which pKd does the source give for B2 here?
A: below the threshold

Each binder was assayed against Inadl_5, Q8NI35 (assay: holdup assay). Conditions: plain residues with an end cap or a label only (N-terminal biotin on a linker: ado-ado).
Design: key: below the threshold = too weak to quantify, mostly under pKd 3.1 to 4

Chain of Inadl_5, Q8NI35 (Q8NI35 673-780): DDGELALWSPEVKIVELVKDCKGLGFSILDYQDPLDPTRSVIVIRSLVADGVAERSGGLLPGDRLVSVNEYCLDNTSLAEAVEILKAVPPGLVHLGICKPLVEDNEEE

Q: Which pKd does the source give for B1 here?
A: 3.5

Q: Which pKd does the source give for B2 here?
A: below the threshold

These binders were tested against Inadl_9, Q8NI35 (assay: holdup assay). Conditions: plain residues with an end cap or a label only (N-terminal biotin on a linker: ado-ado).
Design: key: below the threshold = too weak to quantify, mostly under pKd 3.1 to 4

Chain of Inadl_9, Q8NI35 (Q8NI35 1530-1615): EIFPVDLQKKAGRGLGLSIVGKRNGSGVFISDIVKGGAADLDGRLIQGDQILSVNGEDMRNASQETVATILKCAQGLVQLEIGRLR

Q: Which pKd does the source give for B1 here?
A: 3.57

Q: B2 was tested. Which pKd did it give?
A: below the threshold

The binders below were run against T4, LIN7A, O14910 (assay: holdup assay). Conditions: plain residues with an end cap or a label only (N-terminal biotin on a linker: ado-ado).
Design: key: below the threshold = too weak to quantify, mostly under pKd 3.1 to 4

Q: Which pKd does the source give for B1 here?
A: 3.72

Q: B2 was tested. Which pKd did it give?
A: below the threshold

What follows are binders tested against T5, LIN7B, Q9HAP6 (assay: holdup assay). Conditions: plain residues with an end cap or a label only (N-terminal biotin on a linker: ado-ado).
Design: key: below the threshold = too weak to quantify, mostly under pKd 3.1 to 4

Q: B1 was tested. Which pKd did it give?
A: below the threshold

Q: With B2 as the binder, how does the pKd read?
A: below the threshold

These binders were tested against LNX1_1, Q8TBB1 (assay: holdup assay). Conditions: plain residues with an end cap or a label only (N-terminal biotin on a linker: ado-ado).
Design: key: below the threshold = too weak to quantify, mostly under pKd 3.1 to 4

Chain of LNX1_1, Q8TBB1 (Q8TBB1 261-371): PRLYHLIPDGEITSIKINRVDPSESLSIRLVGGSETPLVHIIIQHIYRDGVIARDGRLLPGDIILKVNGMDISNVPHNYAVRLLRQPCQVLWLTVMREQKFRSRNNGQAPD

Q: Which pKd does the source give for B1 here?
A: below the threshold

Q: Which pKd does the source give for B2 here?
A: below the threshold

These binders were tested against MAGI2_2, Q86UL8 (assay: holdup assay). Conditions: plain residues with an end cap or a label only (N-terminal biotin on a linker: ado-ado).
Design: key: below the threshold = too weak to quantify, mostly under pKd 3.1 to 4

Chain of MAGI2_2, Q86UL8 (Q86UL8 410-522): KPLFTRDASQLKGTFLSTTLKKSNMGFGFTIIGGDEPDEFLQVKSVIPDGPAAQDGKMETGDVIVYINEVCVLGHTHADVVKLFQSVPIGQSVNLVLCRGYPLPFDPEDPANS

Q: With B1 as the binder, how does the pKd read?
A: 4.38

Q: Which pKd does the source give for B2 here?
A: below the threshold

These binders were tested against MAGI2_6, Q86UL8 (assay: holdup assay). Conditions: plain residues with an end cap or a label only (N-terminal biotin on a linker: ado-ado).
Design: key: below the threshold = too weak to quantify, mostly under pKd 3.1 to 4

Chain of MAGI2_6, Q86UL8 (Q86UL8 1141-1229): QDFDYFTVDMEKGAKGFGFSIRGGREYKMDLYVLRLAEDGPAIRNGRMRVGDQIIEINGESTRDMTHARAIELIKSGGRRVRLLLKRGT

Q: For B1, which pKd is on record?
A: 4.03

Q: For B2, which pKd is on record?
A: below the threshold

The binders below were run against MAST2, Q6P0Q8 (assay: holdup assay). Conditions: plain residues with an end cap or a label only (N-terminal biotin on a linker: ado-ado).
Design: key: below the threshold = too weak to quantify, mostly under pKd 3.1 to 4

Chain of MAST2, Q6P0Q8 (Q6P0Q8 1099-1202): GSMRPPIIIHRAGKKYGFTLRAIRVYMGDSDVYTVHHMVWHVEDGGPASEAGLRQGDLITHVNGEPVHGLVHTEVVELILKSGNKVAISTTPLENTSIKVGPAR

Q: How did the pKd turn out when B1 was run?
A: 4.88

Q: Which pKd does the source give for B2 here?
A: 3.83

Each binder was assayed against T6, MPDZ_12, O75970 (assay: holdup assay). Conditions: plain residues with an end cap or a label only (N-terminal biotin on a linker: ado-ado).
Design: key: below the threshold = too weak to quantify, mostly under pKd 3.1 to 4

Q: For B1, which pKd is on record?
A: below the threshold

Q: For B2, which pKd is on record?
A: 3.6

These binders were tested against NHERF2_2, Q15599 (assay: holdup assay). Conditions: plain residues with an end cap or a label only (N-terminal biotin on a linker: ado-ado).
Design: key: below the threshold = too weak to quantify, mostly under pKd 3.1 to 4

Chain of NHERF2_2, Q15599 (Q15599 142-238): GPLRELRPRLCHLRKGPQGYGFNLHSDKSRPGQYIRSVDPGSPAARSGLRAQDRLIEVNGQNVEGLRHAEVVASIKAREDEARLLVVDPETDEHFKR

Q: Which pKd does the source give for B1 here?
A: 3.51

Q: Which pKd does the source give for B2 here?
A: below the threshold

These binders were tested against NHERF4_4, Q86UT5 (assay: holdup assay). Conditions: plain residues with an end cap or a label only (N-terminal biotin on a linker: ado-ado).
Design: key: below the threshold = too weak to quantify, mostly under pKd 3.1 to 4

Chain of NHERF4_4, Q86UT5 (Q86UT5 464-550): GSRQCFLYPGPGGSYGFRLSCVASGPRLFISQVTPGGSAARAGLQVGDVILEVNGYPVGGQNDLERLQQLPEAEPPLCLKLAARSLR

Q: With B1 as the binder, how does the pKd read?
A: 3.95

Q: For B2, which pKd is on record?
A: below the threshold

Each binder was assayed against T7, PCLO, Q9Y6V0 (assay: holdup assay). Conditions: plain residues with an end cap or a label only (N-terminal biotin on a linker: ado-ado).
Design: key: below the threshold = too weak to quantify, mostly under pKd 3.1 to 4

Q: For B1, which pKd is on record?
A: below the threshold

Q: With B2 as the binder, how does the pKd read?
A: below the threshold

Each binder was assayed against T8, PTPN13_1, Q12923 (assay: holdup assay). Conditions: plain residues with an end cap or a label only (N-terminal biotin on a linker: ado-ado).
Design: key: below the threshold = too weak to quantify, mostly under pKd 3.1 to 4

Q: Which pKd does the source give for B1 here?
A: below the threshold

Q: How did the pKd turn out when B2 was run?
A: below the threshold

Each binder was assayed against T9, SHANK1, Q9Y566 (assay: holdup assay). Conditions: plain residues with an end cap or a label only (N-terminal biotin on a linker: ado-ado).
Design: key: below the threshold = too weak to quantify, mostly under pKd 3.1 to 4

Q: With B1 as the binder, how does the pKd read?
A: 3.57

Q: With B2 as the binder, how does the pKd read?
A: below the threshold

What follows are binders tested against T10, TX1BP3, O14907 (assay: holdup assay). Conditions: plain residues with an end cap or a label only (N-terminal biotin on a linker: ado-ado).
Design: key: below the threshold = too weak to quantify, mostly under pKd 3.1 to 4

Q: Which pKd does the source give for B1 here?
A: 4.17

Q: B2 was tested. Which pKd did it give?
A: below the threshold
